From PMC10022743

B1: HA–YKT6-WT (full-length, siRNA-resistant) [human] / SNAP29 [human (endogenous in HEK293T)] (parent)
chain 1: MKLYSLSVLYKGEAKVVLLKAAYDVSSFSFFQRSSVQEFMTFTSQLIVERSSKGTRASVKEQDYLCHVYVRNDSLAGVVIADNEYPSRVAFTLLEKVLDEFSKQVDRIDWPVGSPATIHYPALDGHLSRYQNPREADPMTKVQAELDETKIILHNTMESLLERGEKLDDLVSKSEVLGTQSKAFYKTARKQNSCCAIM
chain 2: MSAYPKSYNPFDDDGEDEGARPAPWRDARDLPDGPDAPADRQQYLRQEVLRRAEATAASTSRSLALMYESEKVGVASSEELARQRGVLERTEKMVDKMDQDLKISQKHINSIKSVFGGLVNYFKSKPVETPPEQNGTLTSQPNNRLKEAISTSKEQEAKYQASHPNLRKLDDTDPVPRGAGSAMSTDAYPKNPHLRAYHQKIDSNLDELSMGLGRLKDIALGMQTEIEEQDDILDRLTTKVDKLDVNIKSTERKVRQL

Variants of: B1
Experiment: immunoprecipitation followed by mass spectrometry
Conditions: with SNAP29 [human (endogenous in HEK293T)], 2 h EBSS and 300 nM Torin 1, read off a plot
[1] = YKT6 siRNA-treated HEK293T WT cells

screen value (HEK293T WT cells) [log2] | screen value [1] [log2] | Variant
-2.3 | -2.3 | chain 1 MKLYSLSVLYKGEAKVVLLKAAYDVSSFSFFQRSSVQEFMTFTSQLIVERSSKGTRASVKEQDYLCHVYVRNDSLAGVVIADNEYPSRVAFTLLEKVLDEFSKQVDRIDWPVGSPATIHYPALDGHLSRYQNPREADPMTKVQAELDETKIILHNEMESLLERGEKLDDLVSKSEVLGTQSKAFYKTARKQNSCCAIM [chain 1 T156E]
2 | 2 | chain 1 MKLYSLSVLYKGEAKVVLLKAAYDVSSFSFFQRSSVQEFMTFTSQLIVERSSKGTRASVKEQDYLCHVYVRNDSLAGVVIADNEYPSRVAFTLLEKVLDEFSKQVDRIDWPVGSPATIHYPALDGHLSRYQNPREADPMTKVQAELDETKIILHNAMESLLERGEKLDDLVSKSEVLGTQSKAFYKTARKQNSCCAIM [chain 1 T156A]
